Measured values from patent publication US20220251222A1, “IL-6Ralpha/IL-8R BISPECIFIC BINDING AGENTS FOR INHIBITING CANCER CELL MIGRATION” (The Johns Hopkins University, priority 2019, published 2022).

Target: human IL-6 (residues 3-185) displayed on the surface of yeast (human) (UniProt P05231)
Test: flow cytometry titration of IL-6Rα ECD on IL-6-displaying yeast

Kd: 88 nM
Substance: human IL-6Rα extracellular domain (ECD), residues 89-303 of the mature protein, with C-terminal biotin acceptor peptide and hexahistidine, biotinylated (from UniProt P08887 108-322) (receptor)
